Test results reported in a protein production outcome set (Wang et al. 2014).

Assay: label from the status in PepcDB records

MRAVLTWRDKAEHCINDIAFKPDGTQLILAAGSRLLVYDTSDGTLLQPLKGHKDTVYCVAYAKDGLWSPEQKSVSKHKSSSKIICCSWTNDGQYLALGMFNGIISIRNKNGEEKVKIERPGGSLSPIWSICWNPSREERNDILAVADWGQKVSFYQLSGKQIGKDRALNFDPCCISYFTKGEYILLGGSDKQVSLFTKDGVRLGTVGEQNSWVWTCQAKPDSNYVVVGCQDGTISFYQLIFSTVHGLYKDRYAYRDSMTDVIVQHLITEQKVRIKCKELVKKIAIYRNRLAIQLPEKILIYELYSEDLSDMHYRVKEKIIKKFECNLLVVCANHIILCQEKRLQCLSFSGVKEREWQMESLIRYIKVIGGPPGREGLLVGLKNGQILKIFVDNLFAIVLLKQATAVRCLDMSASRKKLAVVDENDTCLVYDIDTKELLFQEPNANSVAWNTQCEDMLCFSGGGYLNIKASTFPVHRQKLQGFVVGYNGSKIFCLHVFSISAVEVPQSAPMYQYLDRKLFKEAYQIACLGVTDTDWRELAMEALEGLDFETAKKAFIRVQDLRYLELISSIEERKKRGETNNDLFLADVFSYQGKFHEAAKLYKRSGHENLALEMYTDLCMFEYAKDFLGSGDPKETKMLITKQADWARNIKEPKAAVEMYISAGEHVKAIEICGDHGWVDMLIDIARKLDKAEREPLLLCATYLKKLDSPGYAAETYLKMGDLKSLVQLHVETQRWDEAFALGEKHPEFKDDIYMPYAQWLAENDRFEEAQKAFHKAGRQREAVQVLEQLTNNAVAESRFNDAAYYYWMLSMQCLDIAQADPAQKDTMLGKFYHFQRLAELYHGYHAIHRHTEDPFSVHRPETLFNISRFLLHSLPKDTPSGISKVKILFTLAKQSKALGAYRLARHAYDKLRGLYIPARFQKSIELGTLTIRAKPFHDSEELVPLCYRCSTNNPLLNNLGNVCINCRQPFIFSASSYDVLHLVEFYLEEGITDEEAISLIDLEVLRPKRDDRQLEIANNSSQILRLVETKDSIGDEDPFTAKLSFEQGGSEFVPVVVSRLVLRSMSRRDVLIKRWPPPLRWQYFRSLLPDASITMCPSCFQMFHSEDYELLVLQHGCCPYCRRCKDDPGP
protein production: failed

MEHSNLRKKHNYKFTISTLTLSCLMAFNAQAAVDCSPLEAWDAGKVYNGGEEVKQGTNAYKAKYWTQNNDPATAGEWGAWQDLGVCSGEVPNEAPTVDLTSPSATEQLTTGDLVTLTASAADSDGNIVRVDFSVDGVVISSVTASPYSTTWTALEGNHTISAQSYDDKGAQSTVSSVAINVTNTPTDNIAPTATLSLSATNVELGSVVTLTADAVDSDGTIDKVDFYIDNTLVGTAATAPYTLQYTTTAVGSLSVYAKATDNLGATANSASTNLTVTSSLPVADNCRPDGLYQTEGVTVPYCTIYDKEGREKMGADHPRRVIGYFTSWRDGGDEQNSYLVKDIPWEQLTHINYAFVSIGSDGKVNVGDVTDPNNAATGKEWAGVEIDPALGFKGHFGALATAKAKHGVKTLISIGGWAETGGHFGADGNRVADGGFYTMTTNADGSINHAAIEKFAVSAVEMMRKYKFDGLDIDYEYPTSMAGAGNPDDKEFMEPRRQYLWASYQVLMKTLREKLDVASAQDDIHYMLTIAAPSSGYLLRGMETFDVTQYLDYVNIMSYDLHGAWNDHVGHNAALYDTGKDSELAQWNVYGTEAYGGIGYLNTDWAYHYFRGSMPAGRINIGVPYYTRGWQGVTGGENGLWGRAPLPDQAKCEPGTGEGEKNNCGYGALGIDNMWHDKNSYGQEMGAGSNPMWHAKNLQEGIFGSYANIYGLDPANDPADQLVGTYTRHYDSVAVAPWLWNAEKKVFLSTEDKDSINVKADYVIDQEIGGIMFWELAGDYSCYVLDSNGNRTSVDATEAACQTGNGEYHMGNTMTKAIYEKFKSATPYGNTVATGAIPTETVDIAVNVGGFKVGDQNYPINPKVTFTNNTGQDIPGGTEFQFDIPVSAPDNAKDQSGGGLQVIASGHTRPNNIGGLDGTMHRVAFTLPAWKALPAGGVYELDMVYYLPISGPANYTVNINNVDYAFKFEQPDLPLADLSSGGNNGGNGGTPDAGCDATGLVTYPDLPQKDWAGNPSHANTGDQVVHNNVIYQANWWTAAEPGSDGSWTKVCNL
protein production: failed

AADKRIDGNGNPETREIKISDYDEITFVGSADFEYEQSDKAPYLSVTIDENLFDYLVTEVEGGTLKIYPKSIKKGFNNNSYDLRPTVYKIKSNSKELKELNTVGSGSFIISKPTKVNRMEINMAGSGNVELRGPVKGYKLECNMAGSGNIIAKDIQLDNLSCSLASSGEIEVIGTVDRASFNVAGSGEIKAFDCQARKAECNIASSGEISVYATQILDANIVGSGEIHYKGDPEISKSIMGSGSINKVK
protein production: not failed

MPEQQLADLSQEVAASGDSIAFAADFAVIVVVATVIGLLARQLGQPTIVAYILTGVVLGPVALDVVTQEGLVDVMAELGLGFLLFLLGLKMRFDDIREILAPITNVAIGQTVLQTALAFLVALLLGFATDEILVIALATVFGATPVIVKVLTDKDEITTLPGKIDVGVLIVQDIYLVVVLALFGAEQLGDAGEIATTLGVIFVMMSFIGLFSLASSRYLLPHLFERIANNKDVFLIVAIAWAFLFIAIAEGFDLSVEVGAFLAGLSLAQLPYSKELQDRITPITDFFILVFFASIGLQIESVGSLLTHWQEALIASVVLMVGNFWIMFYLIDREGFGPETSFLGSINMVQVSEFSLVVGALAFQQGYIGADVLGYLTLMALLTMTASTYIILYNHAIYERVAPWIRRISSGDGIDEGLPEYENHAVAIGYDEVTEKALPVLDEAFEEVVIIDRNTEHIAEIREAGEYESIFGDFRHKEVRKASNLKEAEFVLSSSVQREINEALLQETADDTPVFVEAERIADAHRLYEAGASYVVMPPHLAAEKLGEYLELYLTDQSVFHTRIQDDIEQIRRRASQATTRRRMASDTGVDLRTSGGDDD
protein production: failed

MEAMTLPPQDLPPGQALLATPLGTANAPQAARVHTYPLRFTGQASEYFRVWIVNLALTVITLGLYTPWARIRTRQYLYGHTWLDDQNFEYTASPFALLRGYLIVVAFFGLYTAAQQLQFTGWEWVTGALGLLFAVAYPWLVRQSMRFQARSTVHRGLRFRFTGSLGDAYVSYGVANIAAVFSGSLALPWAWFMQRRYQADGLAYGTARGHFRGSLGPFYLIGLAGAGLTVLGIGLLAGLAIGAATIAGVLGDLNLEQLDTDLLTSAVVVAFVLGYLALAVLYGIAWQYVRAATMHYVLNNFELGGVVRTQATFSPWRLVWINLANTLARIFSLGLLTPWTVIRTNRYLLGHVQVRAIVSLDDFSAAQTEDESAVGEAATELLDINIGF
protein production: failed

MTTLEAFAKARSEGRAALIPYLTAGFPSREGFLQAVEEVLPYADLLEIGLPYSDPLGDGPVIQRASELALRKGMSVQGALELVREVRALTEKPLFLMTYLNPVLAWGPERFFGLFKQAGATGVILPDLPPDEDPGLVRLAQEIGLETVFLLAPTSTDARIATVVRHATGFVYAVSVTGVTGMRERLPEEVKDLVRRIKARTALPVAVGFGVSGKATAAQAAVADGVVVGSALVRALEEGRSLAPLLQEIRQGLQRLEANPGLKESSKKPLP
protein production: not failed

MFANWLLVSVSIGYIGLLFLIAHLGGKYRNKLEAKQQTIIYALSLGVYCTSWGFLGTTAQAANHSFTFLSVYLAPIVLFVFAWPFIQRIIKTSLKLKITSIADLLSARFGKSQTLAIIITLVALIGTMPYIALQLKAIVNSYQILQETQDLPIWQIGLVVSIILAVFTIIFGIRTIDITERHPGVMIAIAFESLVKLIAFLLVGLFVSFIIYDSPMDIWELSKDQFDIEKQFEFSNLFALFGMLIIVMSAFLCLPRQFQVMFVEIKDKKTSGMARWVLPVYLLIFGFFAAVLGLAGNLNYGSSLAADAYVLFLPALDGQVWLSLFAFLGAVSAASSMVIVSTIALSTMLSNEIVFPVMFNFSRQKQQDFNHFQLQLLFIRKTLVLLVIFLSYGLLLVSPPDALSSLGEVAFGAIAQIGPALFVAFYWRRATLAGVLAGIICGFTIWTVFNLIPQLGIYAHPLENTDLPKTTVITLIGLLINVIALWLVSLGTRQSIREQMQSEFFYTDRKKIKWSLPSQPKVDIVELELLVARFIGEEKATKCFEKFHSMNQTKDNKKFNEAILFHAENTLARVLGSASAKLVTSLAISSRGMAFDQVAKLVEDNSTQQLEFSRTVLQSAIENVSEGISVIDSELKLVAWNKQYLDIFSYPEAFIYIGCPISQLIHFNLSQQGYFAKDIDLRVKKRIQYIMEGSRHNTEYKLKNGKNIRIEGSPIPGGGFVMIFSDITQYRQTEEVLKEENTDLESRVQFRTAELEQANKELALANHELIQAQTKAEQAHVKKSQYLKACSHDLLQPLSAARLFSSAISLSPRVSNEEREQIKKIDNSLEIANSLLLDLNEIARIESGNITPTIEPIEIKELFTMLANEFNALTDEYHVEFHCKMSKTYVASDITLLARIVQNFLSNAFRYAHRCDKKNQSKVLLGCRRQGNEISIQVFDNGPGIPIDKQQQVFDQFTQLNNSNVMGPKGLGLGLNIAQSLANILEHKIDLKSKPGHGCLFSVNAPMTLAPAAKEQTLPPASMSLHGVGVLCIDNEPAILDGMSKLLSAWQCQVFTAVDAQQARELYAKHEDEIDILLVDYQLDGCQDDNTIMATDMLISERNDSSCSIDPVNGIGLIKQLRAMSPYALPAILITATTGENLMALTKQHNIGYLRKIIRPLALRALMSSLLTEELAKNYSQNNT
protein production: failed

MPDLMHSELTMSGPEQSLLAGALLGAGLPADAHRHLELAGRDYQSEALAEQHLREAHLLAPDHAAVLIGLYRFYFYKGRLGEALEVAQACLCKAARDNGLASDWRKVRRGDAEFSSYSAVLPRFYLFALKAYAYLQMRLGQLDEGHAAVEKLLELDPTDKVGAAVLLDVWRRIGQDDDD
protein production: failed

MEGLESVYAQAMYGMTRESKIMEHQGSDLIWGGNELMARELCSSSSYHHQLINPNLSSCFMSDLGVLGEIQQQQHVGNRASSIDPSSLDCLLSATSNSNNTSTEDDEGISVLFSDCQTLWSFGGVSSAESENREITTETTTTIKPKPLKRNRGGDGGTTETTTTTTKPKSLKRNRGDETGSHFSLVHPQDDSEKGGFKLIYDENQSKSKKPRTEKERGGSSNISFQHSTCLSDNVEPDAEAIAQMKEMIYRAAAFRPVNFGLEIVEKPKRKNVKISTDPQTVAARQRRERISEKIRVLQTLVPGGTKMDTASMLDEAANYLKFLRAQVKALENLRPKLDQTNLSFSSAPTSFPLFHPSFLPLQNPNQIHHPEC
protein production: failed

MSLAADSADAGFARDMSVHHQQAVEMSYIVRDRTDDEEVRRLAYDIAQTQANQRGMMIGWLDLWALPKVSSDPPMTWMGMGDAPSAGEGSLMPGMATDAEMKKLGTLDGKQAEVYYLQLMTEHHRGGVHMAKGCVERCTVGVEKRLARGMVESQESEIRLMADLLAERGAKEGHHHHHH
protein production: not failed

MVERLLEIIERSLRKCPWLEKQSIETLLEALASEIEEVAEAVKKNDLANLEEEIGDLIYDALLVAAVAQRDYGIDLESAIQKVVEKISHRKPWLFWEEKISLEEAEKIWKERKKKI
protein production: not failed

MPGFKSDLLIKRMDNEMETWILPTIPAFESTAEIAKIYRVRHQEAIEKSSDIYHFSGFIQEQIVCSLTLTVMGDCARIDDVATFPKYQKNGYATQLILSELQILKDTNISWCFLEASADGLNIYKKIG
protein production: not failed

MQDAFEVALPLFLIMDPVGNAAASLAILREHTPSRQRAIIRRELVFALAIVLLFHFLGDALLGLLDIEQSTLRLSGGIILFIIAMKMVFPPAQENDPEAVTRDPFIVPIAVPLIAGPSLLAAVMVYARQAQAGMMGQASVLGGVLMAWGATALIMAFTPDLARILGPRAMRAMERLMGLILILMAVQMLENGIRIFVQSL
protein production: failed

MRVSVVIPARNEEAYLPSALEAVLAQTLPPFEVIVVDNASTDRTREVAEALGARVVFCGRRGVAYARQAGLLAARGEWVAMTDADSLPTPRWLERLAHKAPGAVAVYGPLRFYGVSPLEAALSEWGYRAFLNLMALLGRPNLAGANMMVLKEAALRVGGFPEVEAREDVLLGWRLKALGPVRYAGDALVLTSARRLQGGWGRFLLRQARNLLGDPRGYFGEAGERERLEHHHHHH
protein production: not failed

MGEKPGTRVFKKSSPNCKLTVYLGKRDFVDHLDKVDPVDGVVLVDPDYLKDRKVFVTLTCAFRYGREDLDVLGLSFRKDLFIATYQAFPPVPNPPRPPTRLQDRLLRKLGQHAHPFFFTIPQNLPCSVTLQPGPEDTGKACGVDFEIRAFCAKSLEEKSHKRNSVRLVIRKVQFAPEKPGP
protein production: failed
